Results taken from FireProtDB (doi:10.1021/bi012084+).
Several values for one entry are separate records, joined by “and”; a condition that tells them apart may be missing. Identical values can stand only once.

B1: Glyceraldehyde-3-phosphate dehydrogenase, P00362 (parent)
chain: MAVKVGINGFGRIGRNVFRAALKNPDIEVVAVNDLTDANTLAHLLKYDSVHGRLDAEVSVNGNNLVVNGKEIIVKAERDPENLAWGEIGVDIVVESTGRFTKREDAAKHLEAGAKKVIISAPAKNEDITIVMGVNQDKYDPKAHHVISNASCTTNCLAPFAKVLHEQFGIVRGMMTTVHSYTNDQRILDLPHKDLRRARAAAESIIPTTTGAAKAVALVLPELKGKLNGMAMRVPTPNVSVVDLVAELEKEVTVEEVNAALKAAAEGELKGILAYSEEPLVSRDYNGSTVSSTIDALSTMVIDGKMVKVVSWYDNETGYSHRVVDLAAYIASKGL

Variants of: B1
Settings: Geobacillus stearothermophilus, pH 7.5, Thermal, DSC, KH2PO4/KOH 100 mM, reversible: no, structure 1GD1, whole UniProt chain shown

Variant	Tm	unfolding enthalpy (calorimetric)	unfolding enthalpy (calorimetric) (transition: 3)	Tm (transition: 3)
T36Q T40S L44Q	64.8 °C and 66.8 °C	215 kcal/mol and 176 kcal/mol	215 kcal/mol and 127 kcal/mol	
Y47G R53G			214 kcal/mol and 127 kcal/mol and 180 kcal/mol	
Y47G S49G			127 kcal/mol	70.2 °C and 71.2 °C
N315T	62.3 °C	138 kcal/mol		65.5 °C
D284G		140 kcal/mol and 148 kcal/mol and 119 kcal/mol		
Y285V		182 kcal/mol and 397 kcal/mol and 178 kcal/mol		
W312F		371 kcal/mol and 525 kcal/mol		
